± gives the standard deviation of the averaged measurements.
Test: total protein half-life in vivo (active degradation + dilution); higher = more stable protein
[1] = E. coli NCM3722 delta-clpP delta-lon delta-hslV, growth: N-lim chemostat, doubling time 6 h
[2] = E. coli NCM3722 delta-clpP, growth: N-lim chemostat, doubling time 6 h
[3] = E. coli NCM3722 delta-hslV, growth: N-lim chemostat, doubling time 6 h
[4] = E. coli NCM3722 delta-smpB, growth: N-lim chemostat, doubling time 6 h
[5] = wild type E. coli NCM3722, growth: C-lim chemostat, doubling time 3 h
[6] = wild type E. coli NCM3722, growth: C-lim chemostat, doubling time 6 h
[7] = wild type E. coli NCM3722, growth: C-lim chemostat, doubling time 12 h
[8] = wild type E. coli NCM3722, growth: N-lim chemostat, doubling time 6 h
[9] = wild type E. coli NCM3722, growth: N-lim chemostat, doubling time 12 h
[10] = wild type E. coli NCM3722, growth: P-lim chemostat, doubling time 6 h
[11] = wild type E. coli NCM3722, growth: P-lim chemostat, doubling time 12 h
[12] = E. coli NCM3722 delta-lon, growth: N-lim chemostat, doubling time 6 h

Sequence | total protein half-life in vivo [1] | total protein half-life in vivo [2] | total protein half-life in vivo [3] | total protein half-life in vivo [4] | total protein half-life in vivo [5] | total protein half-life in vivo [6] | total protein half-life in vivo [7] | total protein half-life in vivo [8] | total protein half-life in vivo [9] | total protein half-life in vivo [10] | total protein half-life in vivo [11] | total protein half-life in vivo [12]
MENQPKLNSSKEVIAFLAERFPHCFSAEGEARPLKIGIFQDLVDRVAGEMNLSKTQLRSALRLYTSSWRYLYGVKPGATRVDLDGNPCGELDEQHVEHARKQLEEAKARVQAQRAEQQAKKREAAATAGEKEDAPRRERKPRPTTPRRKEGAERKPRAQKPVEKAPKTVKAPREEQHTPVSDISALTVGQALKVKAGQNAMDATVLEITKDGVRVQLNSGMSLIVRAEHLVF | 6.28 ± 0.52 h | 4.08 ± 0.88 h | 3.47 ± 0.071 h | 3.13 ± 0.045 h | 2.73 ± 0.21 h | 4.51 ± 0.22 h | 6.83 ± 0.53 h | 3.07 ± 0.052 h | 4.76 ± 0.052 h | 2.974 ± 0.024 h | 4.71 ± 0.23 h | –
MENYLIDNLDRGILEALMGNARTAYAELAKQFGVSPGTIHVRVEKMKQAGIITGARIDVSPKQLGYDVGCFIGIILKSAKDYPSALAKLESLDEVTEAYYTTGHYSIFIKVMCRSIDALQHVLINKIQTIDEIQSTETLIVLQNPIMRTIKP [P0ACI6] | – | 5.95 h | 6.24 ± 1.1 h | 5.72 ± 0.49 h | 3.51 ± 0.15 h | 6.232 ± 0.029 h | 11.4 h | 5.85 ± 0.57 h | 11.6 ± 0.12 h | 6.94 ± 0.64 h | 13.2 ± 0.17 h | 5.77 ± 0.21 h
MEQRRLASTEWVDIVNEENEVIAQASREQMRAQCLRHRATYIVVHDGMGKILVQRRTETKDFLPGMLDATAGGVVQADEQLLESARREAEEELGIAGVPFAEHGQFYFEDKNCRVWGALFSCVSHGPFALQEDEVSEVCWLTPEEITARCDEFTPDSLKALALWMKRNAKNEAVETETAE | 5.19 ± 0.16 h | 4.78 ± 0.093 h | 2.3 ± 0.074 h | 2.49 ± 0.11 h | 1.93 ± 0.17 h | 4.53 ± 1.2 h | 7.26 ± 0.99 h | 2.85 h | 3.09 ± 0.045 h | 3.4 ± 0.06 h | 7.2 ± 0.65 h | 2.72 ± 0.38 h
MERCGWVSQDPLYIAYHDNEWGVPETDSKKLFEMICLEGQQAGLSWITVLKKRENYRACFHQFDPVKVAAMQEEDVERLVQDAGIIRHRGKIQAIIGNARAYLQMEQNGEPFVDFVWSFVNHQPQVTQATTLSEIPTSTSASDALSKALKKRGFKFVGTTICYSFMQACGLVNDHVVGCCCYPGNKP | 5.26 ± 0.55 h | 2.52 ± 0.12 h | 2.48 ± 0.17 h | 1.72 ± 0.98 h | – | 1.68 h | 3.77 ± 2 h | 2.53 ± 0.58 h | 3.37 h | – | – | 4.36 ± 0.28 h
MERLKRMSVFAKVVEFGSFTAAARQLQMSVSSISQTVSKLEDELQVKLLNRSTRSIGLTEAGRIYYQGCRRMLHEVQDVHEQLYAFNNTPIGTLRIGCSSTMAQNVLAGLTAKMLKEYPGLSVNLVTGIPAPDLIADGLDVVIRVGALQDSSLFSRRLGAMPMVVCAAKSYLTQYGIPEKPADLSSHSWLEYSVRPDNEFELIAPEGISTRLIPQGRFVTNDPMTLVRWLTAGAGIAYVPLMWVINEINRGELEILLPRYQSDPRPVYALYTEKDKLPLKVQVVINSLTDYFVEVGKLFQEMHGRGKEK | 5.96 ± 0.4 h | 5.9 ± 0.28 h | 6.51 ± 0.75 h | 6.03 ± 0.19 h | 3.47 ± 0.21 h | – | 11 ± 0.14 h | 5.69 ± 0.44 h | 13.9 ± 0.74 h | 5.75 ± 0.69 h | 12.7 ± 0.32 h | 6.27 ± 0.31 h
MERNKLARQIIDTCLEMTRLGLNQGTAGNVSVRYQDGMLITPTGIPYEKLTESHIVFIDGNGKHEEGKLPSSEWRFHMAAYQSRPDANAVVHNHAVHCTAVSILNRSIPAIHYMIAAAGGNSIPCAPYATFGTRELSEHVALALKNRKATLLQHHGLIACEVNLEKALWLAHEVEVLAQLYLTTLAITDPVPVLSDEEIAVVLEKFKTYGLRIEE [P0AB87] | – | – | – | – | 2.81 ± 0.01 h | 4.78 ± 0.5 h | 7.71 ± 0.3 h | – | – | – | – | –
MERVSITERPDWREKAHEYGFNFHTMYGEPYWCEDAYYKLTLAQVEKLEEVTAELHQMCLKVVEKVIASDELMTKFRIPKHTWSFVRQSWLTHQPSLYSRLDLAWDGTGEPKLLENNADTPTSLYEAAFFQWIWLEDQLNAGNLPEGSDQFNSLQEKLIDRFVELREQYGFQLLHLTCCRDTVEDRGTIQYLQDCATEAEIATEFLYIDDIGLGEKGQFTDLQDQVISNLFKLYPWEFMLREMFSTKLEDAGVRWLEPAWKSIISNKALLPLLWEMFPNHPNLLPAYFAEDDHPQMEKYVVKPIFSREGANVSIIENGKTIEAAEGPYGEEGMIVQQFHPLPKFGDSYMLIGSWLVNDQPAGIGIREDRALITQDMSRFYPHIFVE [P0ADT5] | – | 4.7 ± 0.6 h | 4.25 ± 0.46 h | 4.3 ± 0.17 h | 3.13 ± 0.18 h | 5.78 ± 1 h | 9.63 ± 0.61 h | 4.46 ± 0.15 h | 8.2 ± 1 h | 5.65 ± 0.24 h | 11.5 ± 0.2 h | 4.93 ± 0.34 h
